Results from patent US20190276511A1 (BIONTECH RNA PHARMACEUTICALS, published 2019).
Like-named read-outs stand apart in the source and are kept apart here.

T1: CD27-Fc (human, UniProt P26842 20-191)
T1 construct: extracellular domain; hinge included for covalent assembly; also called CD27 receptor-Fc fusion protein; not shown: human Fc gamma 1 region including the hinge region
T1 sequence (looked up): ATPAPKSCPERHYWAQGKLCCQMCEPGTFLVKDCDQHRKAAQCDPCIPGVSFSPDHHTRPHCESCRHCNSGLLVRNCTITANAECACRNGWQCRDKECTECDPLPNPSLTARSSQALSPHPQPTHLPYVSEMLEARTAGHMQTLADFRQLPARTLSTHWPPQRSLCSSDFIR

T2: OX40-Fc (human, UniProt P43489 29-214)
T2 construct: extracellular domain; hinge included for covalent assembly; also called OX40 receptor-Fc fusion protein; not shown: human Fc gamma 1 region including the hinge region
T2 sequence (looked up): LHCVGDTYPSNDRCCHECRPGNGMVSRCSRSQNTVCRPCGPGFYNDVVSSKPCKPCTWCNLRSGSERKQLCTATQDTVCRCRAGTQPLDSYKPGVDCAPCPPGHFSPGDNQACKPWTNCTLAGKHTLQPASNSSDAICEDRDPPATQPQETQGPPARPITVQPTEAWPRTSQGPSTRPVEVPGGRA

T3: OX40 receptor on cells (human, UniProt P43489 29-277)
T3 sequence (looked up): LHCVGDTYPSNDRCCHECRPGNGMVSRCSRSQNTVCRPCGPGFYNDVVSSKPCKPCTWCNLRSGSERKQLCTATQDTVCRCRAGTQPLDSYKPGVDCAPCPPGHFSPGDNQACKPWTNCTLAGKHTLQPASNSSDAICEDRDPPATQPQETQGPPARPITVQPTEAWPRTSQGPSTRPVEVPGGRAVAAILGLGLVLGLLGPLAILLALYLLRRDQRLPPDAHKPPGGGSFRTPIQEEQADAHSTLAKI

B1: scCD27L-sc4-1BBL (ligand)
chain: SLGWDVAELQLNHTGPQQDPRLYWQGGPALGRSFLHGPELDKGQLRIHRDGIYMVHIQVTLAICSSTTASRHHPTTLAVGICSPASRSISLLRLSFHQGCTIASQRLTPLARGDTLCTNLTGTLLPSRNTDETFFGVQWVRPGGGSGGGSLGWDVAELQLNHTGPQQDPRLYWQGGPALGRSFLHGPELDKGQLRIHRDGIYMVHIQVTLAICSSTTASRHHPTTLAVGICSPASRSISLLRLSFHQGCTIASQRLTPLARGDTLCTNLTGTLLPSRNTDETFFGVQWVRPGGGSGGGSLGWDVAELQLNHTGPQQDPRLYWQGGPALGRSFLHGPELDKGQLRIHRDGIYMVHIQVTLAICSSTTASRHHPTTLAVGICSPASRSISLLRLSFHQGCTIASQRLTPLARGDTLCTNLTGTLLPSRNTDETFFGVQWVRPGGGGSGGGTGGGGSREGPELSPDDPAGLLDLRQGMFAQLVAQNVLLIDGPLSWYSDPGLAGVSLTGGLSYKEDTKELVVAKAGVYYVFFQLELRRVVAGEGSGSVSLALHLQPLRSAAGAAALALTVDLPPASSEARNSAFGFQGRLLHLSAGQRLGVHLHTEARARHAWQLTQGATVLGLFRVTPEIPAGLPSPRSEGGGGSGGGGSGGGGSREGPELSPDDPAGLLDLRQGMFAQLVAQNVLLIDGPLSWYSDPGLAGVSLTGGLSYKEDTKELVVAKAGVYYVFFQLELRRVVAGEGSGSVSLALHLQPLRSAAGAAALALTVDLPPASSEARNSAFGFQGRLLHLSAGQRLGVHLHTEARARHAWQLTQGATVLGLFRVTPEIPAGLPSPRSEGGGGSGGGGSGGGGSREGPELSPDDPAGLLDLRQGMFAQLVAQNVLLIDGPLSWYSDPGLAGVSLTGGLSYKEDTKELVVAKAGVYYVFFQLELRRVVAGEGSGSVSLALHLQPLRSAAGAAALALTVDLPPASSEARNSAFGFQGRLLHLSAGQRLGVHLHTEARARHAWQLTQGATVLGLFRVTPEIPAGLPSPRSE
notes: scDuokine from HEK293; VH leader left out; also called single-chain Duokine scCD27L-sc4-1BBL; not shown: N-terminal FLAG tag
B2: CD27L-4-1BBL (ligand)
chain: SLGWDVAELQLNHTGPQQDPRLYWQGGPALGRSFLHGPELDKGQLRIHRDGIYMVHIQVTLAICSSTTASRHHPTTLAVGICSPASRSISLLRLSFHQGCTIASQRLTPLARGDTLCTNLTGTLLPSRNTDETFFGVQWVRPGGGGSGGGGSGGGGSGGGGSREGPELSPDDPAGLLDLRQGMFAQLVAQNVLLIDGPLSWYSDPGLAGVSLTGGLSYKEDTKELVVAKAGVYYVFFQLELRRVVAGEGSGSVSLALHLQPLRSAAGAAALALTVDLPPASSEARNSAFGFQGRLLHLSAGQRLGVHLHTEARARHAWQLTQGATVLGLFRVTPEIPAGLPSPRSE
notes: Duokine from HEK293, FLAG-purified; VH leader left out; homotrimer by SEC; also called Duokine CD27L-4-1BBL; not shown: N-terminal FLAG tag
B3: scCD40L-sc4-1BBL (ligand)
chain: GDQNPQIAAHVISEASSKTTSVLQWAEKGYYTMSNNLVTLENGKQLTVKRQGLYYIYAQVTFCSNREASSQAPFIASLCLKSPGRFERILLRAANTHSSAKPCGQQSIHLGGVFELQPGASVFVNVTDPSQVSHGTGFTSFGLLKLGGGSGGGGDQNPQIAAHVISEASSKTTSVLQWAEKGYYTMSNNLVTLENGKQLTVKRQGLYYIYAQVTFCSNREASSQAPFIASLCLKSPGRFERILLRAANTHSSAKPCGQQSIHLGGVFELQPGASVFVNVTDPSQVSHGTGFTSFGLLKLGGGSGGGGDQNPQIAAHVISEASSKTTSVLQWAEKGYYTMSNNLVTLENGKQLTVKRQGLYYIYAQVTFCSNREASSQAPFIASLCLKSPGRFERILLRAANTHSSAKPCGQQSIHLGGVFELQPGASVFVNVTDPSQVSHGTGFTSFGLLKLGGGGSGGGTGGGGSREGPELSPDDPAGLLDLRQGMFAQLVAQNVLLIDGPLSWYSDPGLAGVSLTGGLSYKEDTKELVVAKAGVYYVFFQLELRRVVAGEGSGSVSLALHLQPLRSAAGAAALALTVDLPPASSEARNSAFGFQGRLLHLSAGQRLGVHLHTEARARHAWQLTQGATVLGLFRVTPEIPAGLPSPRSEGGGGSGGGGSGGGGSREGPELSPDDPAGLLDLRQGMFAQLVAQNVLLIDGPLSWYSDPGLAGVSLTGGLSYKEDTKELVVAKAGVYYVFFQLELRRVVAGEGSGSVSLALHLQPLRSAAGAAALALTVDLPPASSEARNSAFGFQGRLLHLSAGQRLGVHLHTEARARHAWQLTQGATVLGLFRVTPEIPAGLPSPRSEGGGGSGGGGSGGGGSREGPELSPDDPAGLLDLRQGMFAQLVAQNVLLIDGPLSWYSDPGLAGVSLTGGLSYKEDTKELVVAKAGVYYVFFQLELRRVVAGEGSGSVSLALHLQPLRSAAGAAALALTVDLPPASSEARNSAFGFQGRLLHLSAGQRLGVHLHTEARARHAWQLTQGATVLGLFRVTPEIPAGLPSPRSE
notes: scDuokine from HEK293; VH leader left out; also called single-chain Duokine scCD40L-sc4-1BBL; not shown: N-terminal FLAG tag
B4: CD40L-4-1BBL (ligand)
chain: GDQNPQIAAHVISEASSKTTSVLQWAEKGYYTMSNNLVTLENGKQLTVKRQGLYYIYAQVTFCSNREASSQAPFIASLCLKSPGRFERILLRAANTHSSAKPCGQQSIHLGGVFELQPGASVFVNVTDPSQVSHGTGFTSFGLLKLGGGGSGGGGSGGGGSGGGGSREGPELSPDDPAGLLDLRQGMFAQLVAQNVLLIDGPLSWYSDPGLAGVSLTGGLSYKEDTKELVVAKAGVYYVFFQLELRRVVAGEGSGSVSLALHLQPLRSAAGAAALALTVDLPPASSEARNSAFGFQGRLLHLSAGQRLGVHLHTEARARHAWQLTQGATVLGLFRVTPEIPAGLPSPRSE
notes: Duokine from HEK293, FLAG-purified; VH leader left out; homotrimer by SEC; also called Duokine CD40L-4-1BBL; not shown: N-terminal FLAG tag
B5: OX40L-4-1BBL (ligand)
chain: QVSHRYPRIQSIKVQFTEYKKEKGFILTSQKEDEIMKVQNNSVIINCDGFYLISLKGYFSQEVNISLHYQKDEEPLFQLKKVRSVNSLMVASLTYKDKVYLNVTTDNTSLDDFHVNGGELILIHQNPGEFCVLGGGGSGGGGSGGGGSGGGGSREGPELSPDDPAGLLDLRQGMFAQLVAQNVLLIDGPLSWYSDPGLAGVSLTGGLSYKEDTKELVVAKAGVYYVFFQLELRRVVAGEGSGSVSLALHLQPLRSAAGAAALALTVDLPPASSEARNSAFGFQGRLLHLSAGQRLGVHLHTEARARHAWQLTQGATVLGLFRVTPEIPAGLPSPRSE
notes: Duokine from HEK293, FLAG-purified; VH leader left out; homotrimer by SEC; also called Duokine OX40L-4-1BBL; not shown: N-terminal FLAG tag

Assays:
4-1BB receptor on cells [1] = target: T4, 4-1BB receptor on cells (human, UniProt Q07011 24-255); experiment: cell-based or functional assay
T4 sequence (Q07011 24-255): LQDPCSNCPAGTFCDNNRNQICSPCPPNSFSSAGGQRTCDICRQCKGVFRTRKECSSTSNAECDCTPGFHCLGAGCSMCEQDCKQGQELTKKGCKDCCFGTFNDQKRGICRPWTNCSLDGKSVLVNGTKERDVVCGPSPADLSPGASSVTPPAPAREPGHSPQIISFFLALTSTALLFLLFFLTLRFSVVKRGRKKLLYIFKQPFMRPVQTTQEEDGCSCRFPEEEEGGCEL

CD27-Fc [2] = target: T1, CD27-Fc; experiment: ELISA, coated receptor-Fc
Method: (§1) Receptor binding of the single-chain Duokines was analyzed by ELISA using fusion proteins of the extracellular region of CD40, CD27, 4-1BB and OX40, respectively, with the human Fcγ1 region including the hinge region for covalent assembly (CD40-Fc, CD27-Fc, 4-1BB-Fc, OX40-Fc). Receptor-Fc fusion proteins (200 ng/well) were coated overnight at 4° C. and remaining binding sites were blocked with PBS, 2% skimmed milk powder (2% MPBS). […] The interactions between scDuokine and receptor were dose-dependent with EC₅₀ values in the low nanomolar ranges (FIG. 11 AB, Tab. 2).

4-1BB-Fc [3] = target: T5, 4-1BB-Fc (human, UniProt Q07011 24-186); experiment: ELISA, coated receptor-Fc
T5 construct: extracellular domain; hinge included for covalent assembly; also called 4-1BB receptor-Fc fusion protein; not shown: human Fc gamma 1 region including the hinge region
Method: as §1

CD40-Fc [4] = target: T6, CD40-Fc (human, UniProt P25942 21-193); experiment: ELISA, coated receptor-Fc
T6 construct: extracellular domain; hinge included for covalent assembly; also called CD40 receptor-Fc fusion protein; not shown: human Fc gamma 1 region including the hinge region
T6 sequence (P25942 21-193 limits assumed): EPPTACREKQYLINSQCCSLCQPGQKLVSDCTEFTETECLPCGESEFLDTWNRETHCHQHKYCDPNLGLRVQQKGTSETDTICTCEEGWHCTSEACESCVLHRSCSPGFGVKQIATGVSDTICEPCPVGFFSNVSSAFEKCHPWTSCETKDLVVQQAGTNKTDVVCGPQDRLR

OX40-Fc [5] = target: T2, OX40-Fc; experiment: ELISA, coated receptor-Fc
4-1BB receptor on cells [6] = target: T4, 4-1BB receptor on cells; experiment: cell-based or functional assay; remark: listed apart in the source
CD27-Fc [7] = target: T1, CD27-Fc; experiment: ELISA, coated receptor-Fc; remark: listed apart in the source
Method: (§2) Receptor binding of the Duokines was analyzed by ELISA using fusion proteins of the extracellular region of CD40, CD27, 4-1BB and OX40, respectively, with the human Fcγ1 region including the hinge region for covalent assembly (CD40-Fc, CD27-Fc, 4-1BB-Fc, OX40-Fc). Receptor-Fc fusion proteins (200 ng/well) were coated overnight at 4° C. and remaining binding sites were blocked with PBS, 2% skimmed milk powder (2% MPBS).

4-1BB-Fc [8] = target: T5, 4-1BB-Fc; experiment: ELISA, coated receptor-Fc; remark: listed apart in the source
Method: as §2

CD40 receptor on cells [9] = target: T7, CD40 receptor on cells (human, UniProt P25942 21-277); experiment: cell-based or functional assay
T7 sequence (P25942 21-277): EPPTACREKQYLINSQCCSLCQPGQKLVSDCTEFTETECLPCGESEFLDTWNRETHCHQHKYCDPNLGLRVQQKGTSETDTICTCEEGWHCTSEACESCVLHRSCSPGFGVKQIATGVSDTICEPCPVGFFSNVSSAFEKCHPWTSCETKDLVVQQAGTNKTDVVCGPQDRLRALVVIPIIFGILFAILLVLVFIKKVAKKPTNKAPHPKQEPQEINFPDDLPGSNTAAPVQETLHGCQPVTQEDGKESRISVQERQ

CD40-Fc [10] = target: T6, CD40-Fc; experiment: ELISA, coated receptor-Fc; remark: listed apart in the source
Method: as §1

CD27-Fc [11] = target: T1, CD27-Fc; experiment: ELISA, coated receptor-Fc; remark: listed apart in the source
CD40 receptor on cells [12] = target: T7, CD40 receptor on cells; experiment: cell-based or functional assay; remark: listed apart in the source
CD40-Fc [13] = target: T6, CD40-Fc; experiment: ELISA, coated receptor-Fc; remark: listed apart in the source
Method: as §2

OX40 receptor on cells = target: T3, OX40 receptor on cells; experiment: cell-based or functional assay
OX40-Fc [14] = target: T2, OX40-Fc; experiment: ELISA, coated receptor-Fc; remark: listed apart in the source
Method: as §2

| Binder | Receptor activation (EC50, nM) (4-1BB receptor on cells [1]) [nM] | EC50 (CD27-Fc [2]) [nM] | EC50 (4-1BB-Fc [3]) [nM] | binding result (CD40-Fc [4]) | binding result (OX40-Fc [5]) | Receptor activation (EC50, nM) (4-1BB receptor on cells [6]) [nM] | EC50 (CD27-Fc [7]) [nM] | EC50 (4-1BB-Fc [8]) [nM] | Receptor activation (EC50, nM) (CD40 receptor on cells [9]) [nM] | EC50 (CD40-Fc [10]) [nM] | binding result (CD27-Fc [11]) | Receptor activation (EC50, nM) (CD40 receptor on cells [12]) [nM] | EC50 (CD40-Fc [13]) [nM] | Receptor activation (EC50, nM) (OX40 receptor on cells) [nM] | EC50 (OX40-Fc [14]) [nM] |
| --- | --- | --- | --- | --- | --- | --- | --- | --- | --- | --- | --- | --- | --- | --- | --- |
| B1 | 1.5 | 9.23 | 4.57 | no binding (tested: 100 nM (FIG. 10)) | no binding (tested: 100 nM (FIG. 10)) | – | – | – | – | – | – | – | – | – | – |
| B2 | – | – | – | no binding (tested: 100 nM (FIG. 4)) | no binding (tested: 100 nM (FIG. 4)) | 1.44 | 6.34 | 1.41 | – | – | – | – | – | – | – |
| B3 | 0.26 | – | 3.17 | – | no binding (tested: 100 nM (FIG. 10)) | – | – | – | 5.23 | 7.02 | no binding (tested: 100 nM (FIG. 10)) | – | – | – | – |
| B4 | – | – | – | – | no binding (tested: 100 nM (FIG. 4)) | 0.45 | – | 2.11 | – | – | no binding (tested: 100 nM (FIG. 4)) | 3.01 | 10.1 | – | – |
| B5 | – | – | – | no binding (tested: 100 nM (FIG. 4)) | – | 2.75 | – | 1.26 | – | – | no binding (tested: 100 nM (FIG. 4)) | – | – | 0.85 | 7.17 |
